One molecule from patent US20130343989A1 (SANFORD BURNHAM MEDICAL RESEARCH INSTITUTE, published 2013) can be followed below.

Test [1] addresses T1, neuropilin-1 by forced expression in M21 cells (transfected neuropilin-1 cDNA) (UniProt O14786 22-923, limits assumed). The test can be described thus: cell-based or functional assay.
The target of test [2] is T1, neuropilin-1 by forced expression in …. The test can be described thus: phage binding to M21 cells transfected with neuropilin-1 cDNA against vector alone or untransfected cells, phage titration.
Procedure: Suspended cells (10⁶ cells in DMEM containing 1% BSA) were incubated with 10⁸ pfu/ml of T7 phage for 1 hr at 4° C. The cells were washed 4 times with the binding buffer, lysed with lysogeny broth containing 1% NP-40, and titrated. Phage internalization assays used the same procedure, except that the cells were incubated with phage at 37° C., and that an acidic buffer (500 mM sodium chloride, 0.1 M glycine, 1% BSA, pH 2.5) was substituted for the binding buffer in the second wash. Inhibitors of binding and internalization were added 20 min prior to incubation with phage. […] Free synthetic peptides, mouse antibodies against human α1, α2, αvβ3, αvβ5, α5β1, α4, or αv integrins and integrin subunits (Chemicon), goat anti-rat neuropilin-1 (R&D Systems, Minneapolis, Minn.), with mouse and a goat IgG isotype controls (Abcam) were also tested.

Ends that are not written are not given here.

T1 sequence (O14786 22-923 limits assumed): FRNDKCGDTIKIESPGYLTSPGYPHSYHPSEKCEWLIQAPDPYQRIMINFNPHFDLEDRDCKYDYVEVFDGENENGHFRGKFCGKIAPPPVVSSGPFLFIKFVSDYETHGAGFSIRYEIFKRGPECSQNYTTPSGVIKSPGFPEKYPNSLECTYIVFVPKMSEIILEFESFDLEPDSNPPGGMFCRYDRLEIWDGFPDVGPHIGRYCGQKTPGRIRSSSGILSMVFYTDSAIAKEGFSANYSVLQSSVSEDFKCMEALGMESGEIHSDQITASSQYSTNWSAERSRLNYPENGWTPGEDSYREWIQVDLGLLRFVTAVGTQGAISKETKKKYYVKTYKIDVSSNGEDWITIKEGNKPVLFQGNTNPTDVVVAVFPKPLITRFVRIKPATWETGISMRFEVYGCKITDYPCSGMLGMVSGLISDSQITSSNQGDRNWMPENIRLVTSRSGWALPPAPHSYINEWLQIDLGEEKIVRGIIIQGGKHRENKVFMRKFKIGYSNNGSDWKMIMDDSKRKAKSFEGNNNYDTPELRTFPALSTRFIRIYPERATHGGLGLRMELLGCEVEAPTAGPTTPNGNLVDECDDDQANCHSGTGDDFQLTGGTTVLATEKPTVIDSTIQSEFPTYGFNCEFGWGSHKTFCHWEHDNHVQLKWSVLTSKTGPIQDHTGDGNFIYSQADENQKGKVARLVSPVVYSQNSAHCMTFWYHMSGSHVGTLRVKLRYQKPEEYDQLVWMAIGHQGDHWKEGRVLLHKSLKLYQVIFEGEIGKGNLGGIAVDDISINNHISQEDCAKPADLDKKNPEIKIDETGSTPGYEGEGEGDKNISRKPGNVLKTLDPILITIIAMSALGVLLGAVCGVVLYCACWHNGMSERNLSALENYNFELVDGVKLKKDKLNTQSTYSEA

B1: CRGDK phage (T7 phage displaying CRGDK) (peptide)
peptide: CRGDK
modifications: also: displayed on T7 phage
notes: CRGDK is the N-terminal proteolytic fragment of iRGD; also called CRGDK fragment; FAM-CRGDK
Take B1: the “internalization of CRGDK phage into M21 cells” value in test [1] worked out at 3.5 fold. Also, in test [2], the “fold increase of binding on forced expression of neuropilin-1 in M21 cells” value is 3.5 fold.
